Usually Kd stands for a measure of binding affinity in units of concentration. Lower therefore signals a tighter complex. The term koff denotes the rate constant with which the complex falls apart. Low values mean a long-lived complex, high ones a short-lived complex. As usually defined, the kon is the rate constant with which the complex forms. A high value points to fast association.

The values that follow come from patent US20170174769A1 (Regeneron, published 2017).

Assay [1] concerns the target T1, human KLB and human FGFR1c co-expressed on HEK293/hKLB/hFGFR1c/SRE-luc cells (human, UniProt Q86Z14 1-1044; P11362 22-822). Description: cell-based or functional assay.
Assay [2] concerns the target cell-surface human FGFR1c (amino acids 1-731 of NP_075594) with cell-surface human KLB on … (human, UniProt P11362 22-822). Description: cell-based or functional assay.
In assay [3] the target is T2, extracellular domain of human KLB expressed with C-terminal HA and hexahistidine tags (human, UniProt Q86Z14 1-996).
T2 construct: also called hKLB-HA-6His; hKLB-HA-6his
T2 sequence: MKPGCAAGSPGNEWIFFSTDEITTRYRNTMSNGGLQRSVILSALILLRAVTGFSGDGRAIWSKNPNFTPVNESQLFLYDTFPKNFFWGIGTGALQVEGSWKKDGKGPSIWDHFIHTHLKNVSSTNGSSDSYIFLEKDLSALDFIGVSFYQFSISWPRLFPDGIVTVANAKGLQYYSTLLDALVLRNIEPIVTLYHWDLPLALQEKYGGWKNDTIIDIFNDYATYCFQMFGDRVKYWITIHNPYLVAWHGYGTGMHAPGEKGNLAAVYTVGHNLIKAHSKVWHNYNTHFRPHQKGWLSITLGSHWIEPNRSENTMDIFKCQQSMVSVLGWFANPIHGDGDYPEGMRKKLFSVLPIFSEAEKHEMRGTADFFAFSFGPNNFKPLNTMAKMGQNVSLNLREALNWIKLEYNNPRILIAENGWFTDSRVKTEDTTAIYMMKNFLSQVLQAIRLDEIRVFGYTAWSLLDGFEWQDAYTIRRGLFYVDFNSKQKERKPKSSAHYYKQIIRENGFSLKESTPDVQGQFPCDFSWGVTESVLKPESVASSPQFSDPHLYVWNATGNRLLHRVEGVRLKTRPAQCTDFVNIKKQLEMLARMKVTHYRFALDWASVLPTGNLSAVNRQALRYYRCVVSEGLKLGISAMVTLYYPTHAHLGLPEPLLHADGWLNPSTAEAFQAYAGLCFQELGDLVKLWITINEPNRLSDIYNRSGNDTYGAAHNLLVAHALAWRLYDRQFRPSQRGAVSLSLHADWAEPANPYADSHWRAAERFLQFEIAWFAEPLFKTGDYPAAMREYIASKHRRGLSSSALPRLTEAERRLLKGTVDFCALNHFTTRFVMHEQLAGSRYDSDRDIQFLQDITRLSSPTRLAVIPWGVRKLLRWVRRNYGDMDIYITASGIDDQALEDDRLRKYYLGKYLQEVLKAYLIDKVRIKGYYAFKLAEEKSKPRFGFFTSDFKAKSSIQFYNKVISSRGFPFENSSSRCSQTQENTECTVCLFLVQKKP
The experiment in a line: SPR, mAb captured, 25 C. Summed up:
(§1)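 Biacore T-200/4000; mAb captured via anti-mouse or anti-human Fc. HBST running buffer (0.01M HEPES pH 7.4). Sensorgrams fit 1:1 for ka, kd; KD, t½ calculated from rate constants.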
(In general: In SPR one partner is held on a chip, and binding of the other changes the refractive index at the surface.)

Assay [4] concerns the target T3, extracellular domain of human FGFR1c expressed with C-terminal V5 and hexahistidine tags (human, UniProt P11362 22-376).
T3 construct: also called hFGFR1c-V5-6His
T3 sequence: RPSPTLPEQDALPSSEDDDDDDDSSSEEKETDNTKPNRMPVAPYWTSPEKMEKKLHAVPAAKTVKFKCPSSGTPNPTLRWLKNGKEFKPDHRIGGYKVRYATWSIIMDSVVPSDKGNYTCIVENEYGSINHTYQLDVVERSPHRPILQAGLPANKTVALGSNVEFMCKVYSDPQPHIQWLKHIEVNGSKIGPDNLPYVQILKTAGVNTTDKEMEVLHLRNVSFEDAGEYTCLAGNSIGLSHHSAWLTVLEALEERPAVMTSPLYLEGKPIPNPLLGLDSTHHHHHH
Description: SPR, mAb captured, 25 C. Summed up: as §1

For assay [5], the target named is T4, full-length human FGFR1c on HEK293/hFGFR1c/SRE-luc cells (human, UniProt P11362 22-822).
T4 construct: amino acids 1-733 of NP_075593
T4 sequence (P11362 other isoform, or with tags, fused parts or gaps limits assumed): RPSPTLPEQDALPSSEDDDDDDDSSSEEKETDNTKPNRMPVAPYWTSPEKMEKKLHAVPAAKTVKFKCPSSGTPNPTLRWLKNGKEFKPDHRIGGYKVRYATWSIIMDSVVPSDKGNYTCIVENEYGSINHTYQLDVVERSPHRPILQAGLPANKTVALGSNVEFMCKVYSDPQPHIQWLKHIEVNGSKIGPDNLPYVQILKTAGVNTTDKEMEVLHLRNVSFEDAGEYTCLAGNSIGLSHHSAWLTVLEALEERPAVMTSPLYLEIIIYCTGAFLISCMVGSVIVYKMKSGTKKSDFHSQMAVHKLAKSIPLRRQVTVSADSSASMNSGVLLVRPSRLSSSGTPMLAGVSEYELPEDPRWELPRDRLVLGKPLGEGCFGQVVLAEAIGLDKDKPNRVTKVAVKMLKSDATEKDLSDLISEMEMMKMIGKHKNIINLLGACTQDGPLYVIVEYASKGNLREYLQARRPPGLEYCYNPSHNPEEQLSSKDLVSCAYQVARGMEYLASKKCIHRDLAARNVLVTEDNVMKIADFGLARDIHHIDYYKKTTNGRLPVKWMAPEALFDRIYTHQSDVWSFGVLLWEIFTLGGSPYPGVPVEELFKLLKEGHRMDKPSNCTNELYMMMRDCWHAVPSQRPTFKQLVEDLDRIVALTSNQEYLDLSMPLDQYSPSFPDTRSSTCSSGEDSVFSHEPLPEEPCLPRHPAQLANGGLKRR
Description: FACS on stable HEK293 cells, 965 nM. The method, then:
(§2) For the FACS analysis, HEK293 parental, HEK293/hFGFR1c, HEK293/hFGFR1c/hKLB, and HEK293/mFGFR1c/mKLB cells were dissociated and plated onto 96-well v-bottom plates at 0.5×10⁶ cells/well in 2% FBS/PBS. […] Control mAb2 was tested at a concentration of 965 nM. After primary protein incubation cells were washed and incubated with 3.75 μg/mL fluorescently conjugated secondary antibodies for 30 minutes at 4° C. Cells were filtered and analyzed on Accuri™ 6 Flow Cytometer. Unstained and secondary antibody alone controls were also tested for all cell lines. The results were analyzed using FlowJo version 9.52 software and geometric mean (Geom. Mean) of fluorescence for viable cells were determined. Geom. mean of fluorescence for each antibody was then normalized to Geom. mean of unstained cells to obtain relative binding of antibody (binding ratios) per each cell type.

Assay [6] concerns the target T1, human KLB and human FGFR1c co-expressed …. The experiment in a line: FACS on stable HEK293 cells, 965 nM. How it is done:
as §2

Where only a bound is given, the exact number is not on record here.

Chain of cell-surface human FGFR1c (amino acids 1-731 of NP_075594) with cell-surface human KLB on … (P11362 22-822): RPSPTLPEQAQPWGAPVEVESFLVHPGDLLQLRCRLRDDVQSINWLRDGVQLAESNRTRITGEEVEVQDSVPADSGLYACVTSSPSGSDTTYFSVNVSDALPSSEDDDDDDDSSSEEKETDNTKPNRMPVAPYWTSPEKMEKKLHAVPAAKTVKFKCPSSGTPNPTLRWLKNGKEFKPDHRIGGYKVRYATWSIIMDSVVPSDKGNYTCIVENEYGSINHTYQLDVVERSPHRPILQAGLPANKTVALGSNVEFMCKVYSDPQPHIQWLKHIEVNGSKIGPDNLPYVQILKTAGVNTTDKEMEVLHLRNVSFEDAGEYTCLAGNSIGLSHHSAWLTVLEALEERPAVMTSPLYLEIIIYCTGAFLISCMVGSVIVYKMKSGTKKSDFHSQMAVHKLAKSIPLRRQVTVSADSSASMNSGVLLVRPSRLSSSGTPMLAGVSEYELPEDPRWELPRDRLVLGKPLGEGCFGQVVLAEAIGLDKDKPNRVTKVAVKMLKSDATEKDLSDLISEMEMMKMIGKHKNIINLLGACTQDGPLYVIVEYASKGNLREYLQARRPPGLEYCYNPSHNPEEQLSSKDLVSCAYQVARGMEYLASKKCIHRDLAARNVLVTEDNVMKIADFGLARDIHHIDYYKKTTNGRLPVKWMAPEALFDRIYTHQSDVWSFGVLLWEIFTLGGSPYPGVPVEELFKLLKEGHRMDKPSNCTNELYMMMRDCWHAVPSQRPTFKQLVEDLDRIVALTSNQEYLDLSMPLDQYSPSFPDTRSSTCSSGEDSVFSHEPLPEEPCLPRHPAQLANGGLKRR

B1: H2aM8092N (antibody, V domains shown)
VH: QVQLQESGPGLVKPSETLSLTCTVSGGSISSYYWSWIRQPPGKGLDWIGHIYYSGTTYYNPSLKSRVSISLDTSKNQFSLKLSSVTAADTAVYYCARHLRGYSSGREFDYWGQGTLVTVSS
VL: DIQMTQSPSSLSASVGGRVSLTCRASQSIFSYLNWYQQKPGKAPKLLIYAASNLQSGVPSRFSGSGSGTDFTLTISSLQPEDFATYSCQQSYNIPYTFGQGTKLEIK
notes: mouse IgG2 Fc (H2aM prefix); also called H2M8092N
For B1, in assay [1], the “EC50, SRE-luc activation without ligand” value came out at 290 pM; the “IC50, inhibition of 1 nM 6His-hFGF21” value is 190 pM; the “Maximum Activation (%)” value is 0.6%; the “Maximum Inhibition (%)” value stood at 74%. Besides, in assay [2], the “% Activation” value is 0.8% and the “EC50, SRE-luc activation” value was found to be 150 pM. In addition, in assay [3], the “20 nM hKLB-HA-6His Bind (RU)” value stood at 64.1 RU, binding was put at a Kd of 383 pM, the koff turned out to be 5.56e-05 s⁻¹ and the kon came to 145000 M⁻¹ s⁻¹. The t1/2 in assay [3] is 3.46 h. In assay [4], the “180 nM hFGFR1c-V5-6His Bind (RU)” value was -1.3 RU.

B2: H1H8900P (antibody, V domains shown)
VH: QVQLVESGGGVVQPGRSLRLSCVASGFTFSSYGMHWVRQAPGKGLEWVAVISFDGSNKYYADSVKGRFTISRDNSKNTLYLQMNSLRPADTAVYYCAKDRSNYYYFGMDVWGQGTTVTVSS
VL: DIVMTQTPLSLPVTPGEPASISCRSSQSLLDSDDGNTYLDWYLQKPGQSPQLLIYTLSYRASGVPDRFSGSGSGTDFTLKISRVEAEDVGVYYCMQRIEFPLTFGGGTKVEIK
notes: H1H Fc prefix (human Fc)
With B2, in assay [1], the “IC50, inhibition of 1 nM 6His-hFGF21” value came out at 2200 pM and the “Maximum Inhibition (%)” value is 36%. In assay [2], the “% Activation” value was found to be 1.4% and the “EC50, SRE-luc activation” value was above 10000 pM. In assay [3], the “20 nM hKLB-HA-6His Bind (RU)” value amounted to 0.3 RU and the binding result is “no binding (tested: 60 nM)”. In addition, in assay [4], the “180 nM hFGFR1c-V5-6His Bind (RU)” value was determined as 1.3 RU and the binding result is “no binding (tested: 180 nM)”. Also, the “MFI Ratio to unstained cells” value in assay [5] amounted to 5 fold. Also, the “MFI Ratio to unstained cells” value in assay [6] worked out at 5 fold.
